B1: m4 endogenous MIPS target site (dsDNA)
DNA 1: GGTGAGGGAGCCGTAGTA
DNA 2: TACTACGGCTCCCTCACC
B2: m12 hairpin oligo (dsDNA)
DNA: GGAGCCTCCTTCCTCCTCTCACTCGGGTTTTCCCGAGTGAGAGGAGGAAGGAGGCTCC
B3: AP3 endogenous target site (dsDNA)
DNA 1: GATGGAGTTGAAGAAGTA
DNA 2: TACTTCTTCAACTCCATC
B4: Ap3 hairpin oligo (dsDNA)
DNA: GGTTACTTCTTCAACTCCATCGGGTTTTCCCGATGGAGTTGAAGAAGTAACC
B5: m34 hairpin oligo (dsDNA)
DNA: GGAGCCAACTACTACGGCTCCCTCACCGGGTTTTCCCGGTGAGGGAGCCGTAGTAGTTGGCTCC

How the values were obtained:
[1] = target: T1, ZFPm3 six-finger zinc finger protein (Sp1C framework) (artificial); assay: ELISA, 1.9 ug/ml protein, non-target; conditions: tags: MBP fusion (pMAL-C2), E. coli, hairpin
Experimental: (§1) Coat ELISA plates (Costar 3690) with streptavidin. Use 25 ul/well of 8 ug/ml streptavidin in PBS. Incubate at 37° C. for 1 hr. Wash 2× with dH2O. Bind wells with 25 ul/well of 4 ng/ul biotinylated target oligonucleotide in PBS. Incubate at 37° C. for 1 hr. Wash 2× with dH2O. Block with 175 ul/well of 3% BSA in Zn Buffer A. Incubate at 37° C. for 1 hr. Tap plates dry. Perform 1:2 serial dilutions of extract in Binding Buffer (1%BSA, 5 mM DTT, .12 ug/ul Salmon Sperm DNA in ZnBA). Usually from 1:4 to 1:512 for multi-target ELISA or 1:4 to 1:32 for screening clones for specific DNA binding activity. Incubate 1 hr at room temperature. Wash 8× with dH2O. Add primary antibody: 25 ul/well of 1:1000 dilution of mouse anti-MBP (Sigma M-6295) in 1%BSA ZnBA (no DTT). Incubate 30 min at room temperature. Wash 8× with dH2O. Add secondary antibody: 25 ul/well of 1:1000 dilution of goat anti-mouse/Alkaline Phosphatase (Pierce 31324) in 1%BSA ZnBA (no DTT). Incubate 30 min at room temperature. Wash 8× with dH2O. Develop with 25 ul developer (1 tablet of Sigma 104 Phosphatase Substrate (Sigma 104-105)/5 ml AP Developing Buffer [100 ml diethanolamine+0.05 g MgCl2+97.5 Sodium Azide, adjust to 500 ml with ddH2O, pH 9.88]). Incubate at room temperature for 5-60 min until color reaction is yellow. Read A405 with a plate reader.
(§2) To evaluate the specificity of new zinc finger protein, the affinity of each protein was determined for binding to the target sequence and several non-target sequences at appropriate protein concentration. For example, to protein ZFPm1 and ZFPm2, the non-target oligoes are: Oligo m34 (SEQ ID NO:20), Oligo Ap3 (SEQ ID NO:21), NRI-1 (SEQ ID NO:22), NRI-2 (SEQ ID NO:23), hHD-I (SEQ ID NO:24), hHD-II (SEQ ID NO:25), c5cl-g (SEQ ID NO:26), c5p3-g (SEQ ID NO:27), B3c2 (SEQ ID NO:28), and e2c-g (SEQ ID NO:29). Similarly, to protein ZFPm3 and ZFPm4, the non-target oligoes are Oligo m12 (SEQ ID NO:19), oligo Ap3 (SEQ ID NO:21), and the eight other oligoes. To protein ZFPAp3, the non-target oligoes are Oligo m12, oligo m34 (SEQ ID NO:20), and the eight other oligoes. The affinity reading for target oligo was further normalized to the no oligo control which has the least affinity.

[2] = target: T2, ZFPAp3 six-finger zinc finger protein (Sp1C framework) (artificial); assay: ELISA, 31.0 ug/ml protein, non-target; conditions: tags: MBP fusion (pMAL-C2), E. coli, hairpin
Experimental: as §1, §2

[3] = target: T3, ZFPm1 six-finger zinc finger protein (Sp1C framework) (artificial); assay: ELISA, 31.0 ug/ml protein, non-target; conditions: tags: MBP fusion (pMAL-C2), E. coli, hairpin
Experimental: as §1, §2

[4] = target: T4, ZFPm2 six-finger zinc finger protein (Sp1C framework) (artificial); assay: ELISA, 15.5 ug/ml protein, non-target; conditions: tags: MBP fusion (pMAL-C2), E. coli, hairpin
Experimental: as §1, §2

[5] = target: T5, ZFPm4 six-finger zinc finger protein (Sp1C framework) (artificial); assay: ELISA, 15.5 ug/ml protein, non-target; conditions: tags: MBP fusion (pMAL-C2), E. coli, hairpin
Experimental: as §1, §2

ZFPm4-VP64 = ZFPm4-VP64 (artificial); assay: cell_activity; endogenous MIPS in maize HE89 protoplasts; conditions: tags: VP64
Description: A maize type II cell line HE89 was used to evaluate the ZFPmips-effector fusion constructs function (FIG. 22). Protoplasts from HE89 suspension cells were isolated and transformed using standard procedures (Chourey and Zurawski, 1981). The activation constructs pND3015, pND3023, pND3024, and pND3016 were transformed into freshly prepared protoplasts. The transcription level of MIPS gene was detected through quantitative PCR. With pND3016 (ZFPm4-VP64 activation constructs), at least 2-fold of activation is detected (FIG. 23). We also measured phytic acid concentration in maize tissues that were transformed by the activation construct of pND3016.

[6] = target: T4, ZFPm2 six-finger zinc finger protein …; assay: ELISA, 15.5 ug/ml protein; conditions: tags: MBP fusion (pMAL-C2), E. coli; label: 5'-biotin (ELISA); 32P (gel shift); hairpin
Experimental: as §1, with “Develop with 25 ul developer (1 tablet of Sigma 104 Phosphatase Substrate (Sigma 104-105)/5 ml AP Developing Buffer [100 ml diethanolamine+0.05 g MgCl2+97.5 Sodium Azide, adjust to 500 ml with ddH2O, pH 9.88]). Incubate at room temperature for 5-60 min until color reaction is yellow.” left out
(§3) To evaluate the specificity of new zinc finger protein, the affinity of each protein was determined for binding to the target sequence and several non-target sequences at appropriate protein concentration. […] The affinity reading for target oligo was further normalized to the no oligo control which has the least affinity.

[7] = target: T3, ZFPm1 six-finger zinc finger protein …; assay: ELISA, 31.0 ug/ml protein; conditions: tags: MBP fusion (pMAL-C2), E. coli; label: 5'-biotin (ELISA); 32P (gel shift); hairpin
Experimental: as §1, with “Develop with 25 ul developer (1 tablet of Sigma 104 Phosphatase Substrate (Sigma 104-105)/5 ml AP Developing Buffer [100 ml diethanolamine+0.05 g MgCl2+97.5 Sodium Azide, adjust to 500 ml with ddH2O, pH 9.88]). Incubate at room temperature for 5-60 min until color reaction is yellow.” left out
as §3

[8] = target: T3, ZFPm1 six-finger zinc finger protein …; assay: EMSA; Zn Buffer A, 10% glycerol, 0.8% BSA, salmon sperm DNA, room temp; conditions: tags: MBP fusion (pMAL-C2), E. coli; label: 5'-biotin (ELISA); 32P (gel shift); hairpin
Experimental: (§4) The affinity of the purified six-finger proteins was measured using gel shift assay. The target oligos used in the ELISA assays were radioactively labeled using [γ32P]-ddATPk and terminal transferase. Ten serial dilutions of 1:3 with the purified protein (starting with ˜1 mg/ml) in binding buffer (1 pM labeled oligo, 10% Glycerol, 0.8% BSA, 0.1 ug/ul salmon sperm DNA in Zn Buffer A) were performed. The ZFP was allowed to bind at room temperature for 1 hr. The samples were then run on 5-6% non-denaturing PAGE gel in TBE. The gel was dried and exposed with Phosphoimager. The affinity (Kd) of the ZFP was calculated from this gel. The Kd value is the concentration of the protein at which half of the labeled oligo is shifted to a higher molecular weight on the gel by binding to the ZFP. […] Most of these affinities compare favorably with the existed 6 finger proteins.

[9] = target: T4, ZFPm2 six-finger zinc finger protein …; assay: as above; conditions: tags: MBP fusion (pMAL-C2), E. coli; label: 5'-biotin (ELISA); 32P (gel shift); hairpin
Experimental: as §4

SID-ZFPAp3 = SID-ZFPAp3 (artificial); assay: cell_activity; endogenous AP3, transgenic Arabidopsis ND0052-2e; 5 fold in ND0052-257; conditions: tags: SID
[10] = target: T2, ZFPAp3 six-finger zinc finger protein …; assay: ELISA, 31.0 ug/ml protein; conditions: tags: MBP fusion (pMAL-C2), E. coli; label: 5'-biotin (ELISA); 32P (gel shift); hairpin
Experimental: as §1, with “Develop with 25 ul developer (1 tablet of Sigma 104 Phosphatase Substrate (Sigma 104-105)/5 ml AP Developing Buffer [100 ml diethanolamine+0.05 g MgCl2+97.5 Sodium Azide, adjust to 500 ml with ddH2O, pH 9.88]). Incubate at room temperature for 5-60 min until color reaction is yellow.” left out
as §3

[11] = target: T2, ZFPAp3 six-finger zinc finger protein …; assay: EMSA; Zn Buffer A, 10% glycerol, 0.8% BSA, salmon sperm DNA, room temp; conditions: tags: MBP fusion (pMAL-C2), E. coli; label: 5'-biotin (ELISA); 32P (gel shift); hairpin
Experimental: as §4

[12] = target: T5, ZFPm4 six-finger zinc finger protein …; assay: ELISA, 15.5 ug/ml protein; conditions: tags: MBP fusion (pMAL-C2), E. coli; label: 5'-biotin (ELISA); 32P (gel shift); hairpin
Experimental: as §1, with “Develop with 25 ul developer (1 tablet of Sigma 104 Phosphatase Substrate (Sigma 104-105)/5 ml AP Developing Buffer [100 ml diethanolamine+0.05 g MgCl2+97.5 Sodium Azide, adjust to 500 ml with ddH2O, pH 9.88]). Incubate at room temperature for 5-60 min until color reaction is yellow.” left out
as §3

[13] = target: T1, ZFPm3 six-finger zinc finger protein …; assay: EMSA; Zn Buffer A, 10% glycerol, 0.8% BSA, salmon sperm DNA, room temp; conditions: tags: MBP fusion (pMAL-C2), E. coli; label: 5'-biotin (ELISA); 32P (gel shift); hairpin
Experimental: as §4

[14] = target: T5, ZFPm4 six-finger zinc finger protein …; assay: as above; conditions: tags: MBP fusion (pMAL-C2), E. coli; label: 5'-biotin (ELISA); 32P (gel shift); hairpin
Experimental: as §4

[15] = target: T1, ZFPm3 six-finger zinc finger protein …; assay: ELISA, 1.9 ug/ml protein; conditions: tags: MBP fusion (pMAL-C2), E. coli; label: 5'-biotin (ELISA); 32P (gel shift); hairpin
Experimental: as §1, with “Develop with 25 ul developer (1 tablet of Sigma 104 Phosphatase Substrate (Sigma 104-105)/5 ml AP Developing Buffer [100 ml diethanolamine+0.05 g MgCl2+97.5 Sodium Azide, adjust to 500 ml with ddH2O, pH 9.88]). Incubate at room temperature for 5-60 min until color reaction is yellow.” left out
as §3

[16] = label: 5'-biotin (ELISA), 32P (gel shift)

T1 sequence (chain, as listed by the source): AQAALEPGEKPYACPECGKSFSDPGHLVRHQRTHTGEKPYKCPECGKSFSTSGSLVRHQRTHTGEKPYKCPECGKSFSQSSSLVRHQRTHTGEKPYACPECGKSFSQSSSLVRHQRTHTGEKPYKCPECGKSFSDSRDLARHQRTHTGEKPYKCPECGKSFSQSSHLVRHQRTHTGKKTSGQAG
T4 sequence (chain, as listed by the source): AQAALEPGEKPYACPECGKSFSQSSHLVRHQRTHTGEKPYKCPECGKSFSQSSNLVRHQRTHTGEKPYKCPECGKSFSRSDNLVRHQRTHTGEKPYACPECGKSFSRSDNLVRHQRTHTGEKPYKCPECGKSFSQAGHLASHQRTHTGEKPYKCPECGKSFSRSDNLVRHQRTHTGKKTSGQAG
T3 sequence (chain, as listed by the source): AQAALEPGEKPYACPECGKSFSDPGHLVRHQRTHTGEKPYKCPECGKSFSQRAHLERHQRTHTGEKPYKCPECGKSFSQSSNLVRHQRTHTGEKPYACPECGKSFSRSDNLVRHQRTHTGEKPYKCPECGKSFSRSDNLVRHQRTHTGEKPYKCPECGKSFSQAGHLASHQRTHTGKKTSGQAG
T2 sequence (chain, as listed by the source): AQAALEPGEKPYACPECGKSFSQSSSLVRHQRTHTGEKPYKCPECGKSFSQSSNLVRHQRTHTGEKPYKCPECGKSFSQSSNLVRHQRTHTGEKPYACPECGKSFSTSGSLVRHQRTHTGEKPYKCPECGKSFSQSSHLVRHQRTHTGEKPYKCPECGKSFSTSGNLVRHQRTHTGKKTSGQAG

| Binder | binding signal ([1]; label: 5'-biotin) [fold over no oligo] | binding signal ([2]; label: 5'-biotin) [fold over no oligo] | binding signal ([3]; label: 5'-biotin) [fold over no oligo] | binding signal ([4]; label: 5'-biotin) [fold over no oligo] | binding signal ([5]; label: 5'-biotin) [fold over no oligo] | also measured |
| --- | --- | --- | --- | --- | --- | --- |
| GGGGCCCCGCCTCCGCCGGCGGGTTTTCCCGCCGGCGGAGGCGGGGCCCC (dsDNA) [hHD-I] | 1 | 2 | 5 | 3 | 2 | – |
| B1 | – | – | – | – | – | activity (ZFPm4-VP64): ≥ 2 fold activation |
| B2 | – | – | – | – | – | binding signal [6]: 23 fold over no oligo; binding signal [7]: 18 fold over no oligo; binding signal [1, 16]: 3 fold over no oligo; binding signal [2, 16]: 14 fold over no oligo; Kd [8]: 2 nM; Kd [9]: 7.5 nM; binding signal [5, 16]: 4 fold over no oligo |
| GGGGCAGCCCCCACGGCGCCGGGTTTTCCCGGCGCCGTGGGGGCTGCCCC (dsDNA) [hHD-II] | 3 | 2 | 4 | 2 | 2 | – |
| GGTGCGGCGACTGCAGCAGCGGGTTTTCCCGCTGCTGCAGTCGCCGCACC (dsDNA) [NRI-2] | 6 | 4 | 4 | 2 | 3 | – |
| B3 | – | – | – | – | – | activity (SID-ZFPAp3): 46 fold repression |
| GGGACACCCCCAACCCCGCCGGGTTTTCCCGGCGGGGTTGGGGGTGTCCC (dsDNA) [c5c1-g] | 3 | 2 | 7 | 5 | 3 | – |
| B4 | – | – | – | – | – | binding signal [10]: 27 fold over no oligo; binding signal [1, 16]: 7 fold over no oligo; binding signal [3, 16]: 4 fold over no oligo; Kd [11]: 2.3 nM; binding signal [4, 16]: 3 fold over no oligo; binding signal [5, 16]: 2 fold over no oligo |
| B5 | – | – | – | – | – | binding signal [12]: 16 fold over no oligo; binding signal [2, 16]: 10 fold over no oligo; binding signal [3, 16]: 5 fold over no oligo; Kd [13]: 0.18 nM; Kd [14]: 0.25 nM; binding signal [4, 16]: 13 fold over no oligo; binding signal [15]: 13 fold over no oligo |
| GGCTCTGCTCATCCCACTACGGGTTTTCCCGTAGTGGGATGAGCAGAGCC (dsDNA) [c5p3-g] | 3 | 2 | 3 | 3 | 2 | – |
| GGCACTGCGGCTCCGGCCCCGGGTTTTCCCGGGGCCGGAGCCGCAGTGCC (dsDNA) [e2c-g] | 9 | 3 | 2 | 2 | 5 | – |
| GGTTCTACCCCTCCCACCGCGGGTTTTCCCGCGGTGGGAGGGGTAGAACC (dsDNA) [NRI-1] | 4 | 8 | 5 | 7 | 5 | – |
| GGACCCACCGCGTCCCCTCCGGGTTTTCCCGGAGGGGACGCGGTGGGTCC (dsDNA) [B3c2] | 3 | 3 | 4 | 4 | 5 | – |

From patent US20030037355, “Methods and compositions to modulate expression in plants” (published 2003)
